Key:
HLA-A*03:01 [1] = assay: IEDB peptide-MHC binding, purified MHC/competitive/fluorescence; ≥ and ≤ were set here for values at or beyond the usual limits of such assays
HLA-A*11:01 [2] = assay: as above
HLA-A*68:02 = assay: IEDB peptide-MHC binding, purified MHC/competitive/radioactivity; filed as Kd, often an IC50 or EC50 that approximates it; ≥ and ≤ were set here for values at or beyond the usual limits of such assays
HLA-A*02:01 [3] = assay: as above
HLA-A*02:02 = assay: as above
HLA-B*48:01 = assay: IEDB peptide-MHC binding, purified MHC/direct/fluorescence; filed as Kd, often an IC50 or EC50 that approximates it; ≥ and ≤ were set here for values at or beyond the usual limits of such assays; conditions: source organism: Burkholderia mallei ATCC 23344
HLA-B*39:01 = assay: IEDB peptide-MHC binding, purified MHC/competitive/fluorescence; filed as Kd, often an IC50 or EC50 that approximates it; ≥ and ≤ were set here for values at or beyond the usual limits of such assays
HLA-A*26:01 = assay: as above
HLA-B*27:03 = assay: as above
HLA-B*51:01 [4] = assay: as above; conditions: source organism: Helicobacter pylori 26695
HLA-A*02:01 [5] = assay: as above
HLA-A*03:01 [6] = assay: as above
HLA-B*18:01 = assay: as above
HLA-B*57:01 = assay: as above
HLA-B*15:01 = assay: as above
HLA-B*46:01 = assay: as above
HLA-B*44:02 = assay: IEDB peptide-MHC binding, purified MHC/competitive/radioactivity; filed as Kd, often an IC50 or EC50 that approximates it; ≥ and ≤ were set here for values at or beyond the usual limits of such assays; conditions: source organism: Hepatitis C virus (isolate 1)
HLA-B*44:03 = assay: as above; conditions: source organism: Hepatitis C virus (isolate 1)
HLA-A*33:01 = assay: as above
HLA-B*53:01 = assay: as above
HLA-B*40:01 = assay: as above; conditions: source organism: Hepatitis C virus (isolate 1)
HLA-A*02:06 = assay: as above
HLA-B*40:02 = assay: as above; conditions: source organism: Hepatitis C virus (isolate 1)
HLA-B*08:01 = assay: as above; conditions: source organism: Hepatitis C virus (isolate 1)
HLA-B*54:01 = assay: as above
HLA-A*02:03 = assay: as above
HLA-A*01:01 [7] = assay: as above; conditions: source organism: Hepatitis C virus (isolate 1)
HLA-A*03:01 [8] = assay: as above
HLA-A*68:01 = assay: as above
HLA-A*31:01 = assay: as above
HLA-A*11:01 [9] = assay: as above
HLA-A*24:02 = assay: IEDB peptide-MHC binding, purified MHC/competitive/fluorescence; ≥ and ≤ were set here for values at or beyond the usual limits of such assays; conditions: source organism: Zaire ebolavirus
HLA-A*02:01 [10] = assay: as above
HLA-A*01:01 [11] = assay: IEDB peptide-MHC binding, purified MHC/competitive/fluorescence; filed as Kd, often an IC50 or EC50 that approximates it; ≥ and ≤ were set here for values at or beyond the usual limits of such assays; conditions: source organism: Influenza A virus (A/equine/California/8560/2002(H3N8))
HLA-A*30:01 = assay: IEDB peptide-MHC binding, purified MHC/competitive/radioactivity; filed as Kd, often an IC50 or EC50 that approximates it; ≥ and ≤ were set here for values at or beyond the usual limits of such assays; conditions: source organism: Vaccinia virus WR
HLA-B*51:01 [12] = assay: as above; conditions: source organism: Vaccinia virus WR
HLA-B*35:01 = assay: as above; conditions: source organism: Vaccinia virus WR
HLA-B*07:02 = assay: as above; conditions: source organism: Vaccinia virus WR
[13] = source organism: Vaccinia virus Copenhagen
[14] = source organism: Lassa virus Josiah
[15] = source organism: Helicobacter pylori 26695
[16] = source organism: Hepatitis C virus (isolate 1)
[17] = source organism: Zaire ebolavirus
[18] = source organism: Vaccinia virus
[19] = source organism: Sudan ebolavirus
[20] = source organism: Triticum aestivum
[21] = source organism: Vaccinia virus WR
[22] = source organism: HIV-1 M:B_ARV2/SF2
[23] = source organism: Camelpox virus CMS

## ANCSSISIK
HLA-A*03:01 [1]; [13]
  IC50: 42.4 µM
HLA-A*11:01 [2]; [13]
  IC50: 2.78 µM

## DLNGAQIKL
HLA-A*68:02; source organism: Homo sapiens
  Kd: 2.98 µM
HLA-A*02:01 [3]; source organism: Homo sapiens
  Kd: ≥ 50.6 µM
HLA-A*02:02; source organism: Homo sapiens
  Kd: 2.62 µM

## DLNLGNLN
HLA-A*02:01 [3]; source organism: Hepatitis B virus subtype ayw
  Kd: ≥ 5 µM

## EQGKQHAWL
HLA-B*48:01
  Kd: ≥ 20 µM

## FLLLCGRSCT
HLA-A*02:01 [3]; [14]
  Kd: ≥ 25 µM

## GIVCYNEEV
HLA-B*39:01; [15]
  Kd: ≥ 20 µM
HLA-A*26:01; [15]
  Kd: ≥ 20 µM
HLA-B*27:03; [15]
  Kd: ≥ 20 µM
HLA-B*51:01 [4]
  Kd: ≥ 20 µM
HLA-A*02:01 [5]; [15]
  Kd: 0.038 µM
HLA-A*03:01 [6]; [15]
  Kd: ≥ 20 µM
HLA-B*18:01; [15]
  Kd: ≥ 20 µM
HLA-B*57:01; [15]
  Kd: ≥ 20 µM
HLA-B*15:01; [15]
  Kd: ≥ 20 µM
HLA-B*46:01; [15]
  Kd: ≥ 20 µM

## HIPGDTLFK
HLA-A*03:01 [1]; source organism: Variola virus
  IC50: 6.64 µM
HLA-A*11:01 [2]; source organism: Variola virus
  IC50: 0.735 µM

## HPNIEEVAL
HLA-B*44:02
  Kd: ≥ 78 µM
HLA-B*44:03
  Kd: ≥ 48.2 µM
HLA-A*33:01; [16]
  Kd: ≥ 77.7 µM
HLA-B*53:01; [16]
  Kd: 0.163 µM
HLA-B*40:01
  Kd: ≥ 76.2 µM
HLA-A*68:02; [16]
  Kd: ≥ 69.8 µM
HLA-A*02:06; [16]
  Kd: ≥ 67.3 µM
HLA-B*40:02
  Kd: ≥ 77.3 µM
HLA-B*08:01
  Kd: ≥ 36 µM
HLA-B*54:01; [16]
  Kd: 4.57 µM
HLA-A*02:03; [16]
  Kd: 17.2 µM
HLA-A*01:01 [7]
  Kd: 16 µM
HLA-A*02:01 [3]; [16]
  Kd: ≥ 70.5 µM
HLA-A*03:01 [8]; [16]
  Kd: ≥ 78 µM
HLA-A*68:01; [16]
  Kd: ≥ 57.9 µM
HLA-A*31:01; [16]
  Kd: ≥ 77.9 µM
HLA-A*02:02; [16]
  Kd: 4 µM
HLA-A*11:01 [9]; [16]
  Kd: ≥ 77.9 µM

## KILMNFHQK
HLA-A*24:02
  IC50: 50.3 µM
HLA-A*02:01 [10]; [17]
  IC50: ≥ 95.4 µM
HLA-A*03:01 [1]; [17]
  IC50: 3.35 µM
HLA-A*11:01 [2]; [17]
  IC50: 0.441 µM

## LEYKTLCDM
HLA-A*03:01 [1]; [18]
  IC50: ≥ 289 µM
HLA-A*11:01 [2]; [18]
  IC50: 44.8 µM

## LGLRKRSRR
HLA-A*03:01 [1]; [19]
  IC50: 6.72 µM
HLA-A*11:01 [2]; [19]
  IC50: 65.8 µM

## LLSQRTRDI
HLA-A*02:01 [3]; [14]
  Kd: 12.5 µM

## LQQSTYQLV
HLA-A*68:02; [20]
  Kd: ≥ 56.5 µM
HLA-A*02:06; [20]
  Kd: 0.0275 µM
HLA-A*02:03; [20]
  Kd: 0.0188 µM
HLA-A*02:01 [3]; [20]
  Kd: 0.0913 µM
HLA-A*02:02; [20]
  Kd: 0.436 µM

## LRTFSILNR
HLA-A*02:01 [10]; [17]
  IC50: ≥ 248 µM
HLA-A*03:01 [1]; [17]
  IC50: ≥ 111 µM
HLA-A*11:01 [2]; [17]
  IC50: 33.1 µM

## LSVETITEK
HLA-A*33:01; [21]
  Kd: 1.52 µM
HLA-A*68:01; [21]
  Kd: 0.261 µM
HLA-A*31:01; [21]
  Kd: 2.92 µM
HLA-A*02:01 [10]; [13]
  IC50: ≥ 134 µM
HLA-A*03:01 [1]; [13]
  IC50: ≥ 101 µM
HLA-A*11:01 [2]; [13]
  IC50: 6.6 µM

## MTIASVPTSRY
HLA-A*01:01 [11]
  Kd: 2.04 µM

## MTIREFPRK
HLA-A*33:01; [21]
  Kd: 1.38 µM
HLA-B*53:01; [21]
  Kd: ≥ 78.2 µM
HLA-A*30:01
  Kd: 0.00159 µM
HLA-A*68:02; [21]
  Kd: 3.32 µM
HLA-A*02:06; [21]
  Kd: ≥ 65.6 µM
HLA-B*51:01 [12]
  Kd: ≥ 77.5 µM
HLA-B*54:01; [21]
  Kd: ≥ 78.1 µM
HLA-A*02:03; [21]
  Kd: ≥ 78.1 µM
HLA-B*35:01
  Kd: ≥ 77.4 µM
HLA-B*07:02
  Kd: ≥ 77.5 µM
HLA-A*02:01 [3]; [21]
  Kd: ≥ 78.1 µM
HLA-A*03:01 [8]; [21]
  Kd: 0.00627 µM
HLA-A*68:01; [21]
  Kd: 0.00619 µM
HLA-A*31:01; [21]
  Kd: 0.0998 µM
HLA-A*02:02; [21]
  Kd: ≥ 77.8 µM
HLA-A*11:01 [9]; [21]
  Kd: 0.00392 µM

## NRSTKGGQQ
HLA-A*03:01 [1]; [17]
  IC50: ≥ 286 µM
HLA-A*11:01 [2]; [17]
  IC50: ≥ 140 µM

## QIIHDFVDK
HLA-A*02:01 [10]; [17]
  IC50: ≥ 262 µM
HLA-A*03:01 [1]; [17]
  IC50: ≥ 97.5 µM
HLA-A*11:01 [2]; [17]
  IC50: 6.34 µM

## SIFLHLVKI
HLA-A*02:01 [3]; [14]
  Kd: 0.385 µM

## TNAMVTLRK
HLA-A*24:02
  IC50: ≥ 188 µM
HLA-A*02:01 [10]; [17]
  IC50: ≥ 1090 µM
HLA-A*03:01 [1]; [17]
  IC50: 6.42 µM
HLA-A*11:01 [2]; [17]
  IC50: 0.311 µM

## VIYQYMDDL
HLA-A*68:02; [22]
  Kd: ≥ 56.2 µM
HLA-A*02:06; [22]
  Kd: 7.68 µM
HLA-A*02:03; [22]
  Kd: 4.74 µM
HLA-A*02:01 [3]; [22]
  Kd: 5.84 µM
HLA-A*02:02; [22]
  Kd: 0.156 µM

## VLYYHMMKD
HLA-A*02:01 [10]; [17]
  IC50: 48.1 µM
HLA-A*03:01 [1]; [17]
  IC50: 26 µM
HLA-A*11:01 [2]; [17]
  IC50: 12.6 µM

## WVIDTLNGI
HLA-B*39:01; [23]
  Kd: ≥ 20 µM
HLA-A*26:01; [23]
  Kd: ≥ 20 µM
HLA-B*27:03; [23]
  Kd: ≥ 20 µM
HLA-A*02:01 [5]; [23]
  Kd: 0.0074 µM
HLA-A*03:01 [6]; [23]
  Kd: ≥ 20 µM
HLA-B*18:01; [23]
  Kd: ≥ 20 µM
HLA-B*57:01; [23]
  Kd: ≥ 20 µM
HLA-B*15:01; [23]
  Kd: ≥ 20 µM
HLA-B*46:01; [23]
  Kd: ≥ 20 µM

Reference: the Immune Epitope Database (IEDB)
